In patent publication US20210059142:

Tests used:
Assay in all cases: cell_activity
[1] = system: FucT1_T01 TAL effector endonuclease, right monomer (engineered); conditions: yeast beta-gal assay of the pair 37 C; 0.6 at 30 C
[2] = system: XylT_T03 TAL effector endonuclease, right monomer (engineered); conditions: yeast beta-gal assay of the pair 37 C; 0.7 at 30 C; protoplast NHEJ 34.4% XylT1, 28.2% XylT2 (Table 3)
[3] = system: XylT_T04 TAL effector endonuclease, right monomer (engineered); conditions: yeast beta-gal assay of the pair 37 C; 0.9 at 30 C; protoplast NHEJ 73.8% XylT1, 63.9% XylT2 (Table 3)
[4] = system: FucT1_T02 TAL effector endonuclease, right monomer (engineered); conditions: yeast beta-gal assay of the pair 37 C; 0.7 at 30 C; protoplast NHEJ 39.2% FucT1, 24.7% FucT2 (Table 3)
[5] = system: FucT2_T02 TAL effector endonuclease, right monomer (engineered); conditions: yeast beta-gal assay of the pair 37 C; 0.7 at 30 C; protoplast NHEJ 46.5% FucT1, 45.0% FucT2 (Table 3)
[6] = system: FucT2_T01 TAL effector endonuclease, right monomer (engineered); conditions: yeast beta-gal assay of the pair 37 C; 0.8 at 30 C
[7] = system: XylT_T04 TAL effector endonuclease, left monomer (engineered); conditions: yeast beta-gal assay of the pair 37 C; 0.9 at 30 C; protoplast NHEJ 73.8% XylT1, 63.9% XylT2 (Table 3)
[8] = system: FucT1_T01 TAL effector endonuclease, left monomer (engineered); conditions: yeast beta-gal assay of the pair 37 C; 0.6 at 30 C
[9] = system: FucT2_T01 TAL effector endonuclease, left monomer (engineered); conditions: yeast beta-gal assay of the pair 37 C; 0.8 at 30 C
[10] = system: FucT2_T02 TAL effector endonuclease, left monomer (engineered)
[11] = system: FucT1_T02 TAL effector endonuclease, left monomer (engineered)
[12] = system: XylT_T03 TAL effector endonuclease, left monomer (engineered); conditions: yeast beta-gal assay of the pair 37 C; 0.7 at 30 C; protoplast NHEJ 34.4% XylT1, 28.2% XylT2 (Table 3)
[13] = system: FucT_T04 TAL effector endonuclease, left monomer (engineered); conditions: yeast beta-gal assay of the pair 37 C; 0.5 at 30 C; same with FucT1 and FucT2 spacers
[14] = system: FucT_T04 TAL effector endonuclease, right monomer (engineered); conditions: yeast beta-gal assay of the pair 37 C; 0.5 at 30 C; same with FucT1 and FucT2 spacers

## AATAAGCAATGGCGCAA (double strand) [FucT1_T01 target sequence 2]
[1]
  activity (relative to I-SceI): 0.8

## ATCACTCTCTATCTCTA (double strand) [XylT_T03 target sequence 2]
[2]
  activity (relative to I-SceI): 0.9

## CTCTACTTCTCTTCCCA (double strand) [XylT_T04 target sequence 2]
[3]
  activity (relative to I-SceI): 0.9

## CTCTGTTCGTTGCCCTA (double strand) [FucT_T02 target sequence 2]
[4]
  activity (relative to I-SceI): 0.9
[5]
  activity (relative to I-SceI): 0.9

## GATAAACAATGGCGCAA (double strand) [FucT2_T01 target sequence 2]
[6]
  activity (relative to I-SceI): 0.9

## TCTCTTCGCTCTCAACT (double strand) [XylT_T04 target sequence 1]
[7]
  activity (relative to I-SceI): 0.9

## TGAGATCGGCGTCAAAT (double strand) [FucT1_T01 target sequence 1]
[8]
  activity (relative to I-SceI): 0.8

## TGAGATCGTCGTCAAAT (double strand) [FucT2_T01 target sequence 1]
[9]
  activity (relative to I-SceI): 0.9

## TTCAAACGCACCCAATA (double strand) [FucT1_T02 target sequence 1]
[10]; pair at endogenous FucT1, 1-bp polymorphism in half-site, N. benthamiana protoplasts, control 0.79%
  activity: 46.5 % NHEJ
[11]; yeast beta-gal assay of the pair 37 C, 0.7 at 30 C, protoplast NHEJ 39.2% at FucT1 (Table 3)
  activity (relative to I-SceI): 0.9

## TTCAAACGCACCCGATA (double strand) [FucT2_T02 target sequence 1]
[10]; yeast beta-gal assay of the pair 37 C, 0.7 at 30 C, protoplast NHEJ 45.0% at FucT2 (Table 3)
  activity (relative to I-SceI): 0.9
[11]; pair at endogenous FucT2, 1-bp polymorphism in half-site, N. benthamiana protoplasts, control 0.14%
  activity: 24.7 % NHEJ

## TTCTTGTTTCTCTCTTC (double strand) [XylT_T03 target sequence 1]
[12]
  activity (relative to I-SceI): 0.9

## TTGCCTCTGTTCGTTGC (double strand) [FucT_T04 target sequence 1]
[13]
  activity (relative to I-SceI): 0.6

## TTTCTGGTTCGACTCGA (double strand) [FucT_T04 target sequence 2]
[14]
  activity (relative to I-SceI): 0.6
